Molecular target: non-specific polyclonal IgG
Test: non-specific polyclonal IgG (2 ug/ml) added as bait, protein A Sepharose pull-down, deoxycholate release, HGF ELISA

HGF recovered from beads after pull-down with IgG: 2.8 ng/mL
Substance: Hepatocyte Growth Factor (HGF) in human epicardial-derived cell-conditioned medium (EPI CdM) (ligand)
